We go through 22 substances from US20190142860A1, “NUCLEIC ACID BASED TIA-1 INHIBITORS” (Aquinnah Pharmaceuticals, Inc., priority 2015, published 2019).

In assay [1] the target is Nucleolysin TIA-1 (endogenous mouse TIA1) (mouse) (UniProt P52912). In words: TIA1 IP-MS, WT1 cortex.
Assay [2] shares this target. Description: TIA1 IP-MS, tau KO 3 cortex.
For assay [3] the target is unchanged. Description: TIA1 IP-MS, WT2 cortex.
For assay [4] the target is unchanged. In words: TIA1 IP-MS, tau KO 1 cortex.
Assay [5] has the same target. In words: TIA1 IP-MS, WT3 cortex.
Assay [6] shares this target. In words: TIA1 IP-MS, tau KO 2 cortex.

Chain of UniProt P52912 (P52912 whole entry): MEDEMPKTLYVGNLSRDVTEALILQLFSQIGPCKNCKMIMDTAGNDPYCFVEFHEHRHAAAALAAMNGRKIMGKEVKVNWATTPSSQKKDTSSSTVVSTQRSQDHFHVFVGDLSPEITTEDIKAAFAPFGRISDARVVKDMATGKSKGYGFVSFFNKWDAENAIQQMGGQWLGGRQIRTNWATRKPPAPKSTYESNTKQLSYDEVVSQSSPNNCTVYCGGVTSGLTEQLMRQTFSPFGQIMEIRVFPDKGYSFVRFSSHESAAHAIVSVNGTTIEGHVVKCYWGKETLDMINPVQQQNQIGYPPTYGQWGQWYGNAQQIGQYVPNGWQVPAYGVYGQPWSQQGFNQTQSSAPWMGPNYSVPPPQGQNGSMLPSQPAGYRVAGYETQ

Consider “Isoform 2 of Focal adhesion kinase 1 (from UniProt P34152 2-1083)”, for which the total ion current (normalized to TIA1 = 1000) in assay [1] turned out to be 0; in assay [2] it was 0; in assay [3], 0; in assay [4], 0; in assay [5], 84.3; in assay [6], 130.
“Isoform 2 of Gelsolin (from UniProt P13020 1-731)”: the total ion current (normalized to TIA1 = 1000) in assay [1] worked out at 0; in assay [2], 0; in assay [3], 0; in assay [4], 144; in assay [5] it was 0; in assay [6], 0.
“Isoform 2 of Hepatoma-derived growth factor-related protein 2 (from UniProt Q3UMU9 1-667)”: the total ion current (normalized to TIA1 = 1000) in assay [1] is 0; in assay [2], 0; in assay [3], 282; in assay [4] it was 0; in assay [5] it was 0; in assay [6], 97.1.
As for “Isoform 2 of Heterogeneous nuclear ribonucleoprotein F (from UniProt Q9Z2X1 1-395)”, the total ion current (normalized to TIA1 = 1000) in assay [1] came to 0; in assay [2], 0; in assay [3], 42.5; in assay [4] it was 0; in assay [5], 48.2; in assay [6], 39.6.
Consider “Isoform 2 of Heterogeneous nuclear ribonucleoprotein Q (from UniProt Q7TMK9 2-562)”, for which the total ion current (normalized to TIA1 = 1000) is 14.7 in assay [1]; 0 in assay [2]; 249 in assay [3]; 19.8 in assay [4]; 0 in assay [5]; 48.5 in assay [6].
Regarding “Isoform 2 of Homer protein homolog 1 (from UniProt Q9Z2Y3 1-370)”, the total ion current (normalized to TIA1 = 1000) in assay [1] was found to be 0; in assay [2], 0; in assay [3] it was 37.8; in assay [4], 0; in assay [5], 137; in assay [6], 59.6.
As for “Isoform 2 of MICOS complex subunit Mic60 (from UniProt Q8CAQ8 34-746)”, the total ion current (normalized to TIA1 = 1000) was determined as 0 in assay [1]; 0 in assay [2]; 64.7 in assay [3]; 0 in assay [4]; 37.6 in assay [5]; 59 in assay [6].
On to “Isoform 2 of NAD-dependent protein deacetylase sirtuin-2 (from UniProt Q8VDQ8 1-352)”, for which the total ion current (normalized to TIA1 = 1000) is 0 in assay [1]; 0 in assay [2]; 175 in assay [3]; 0 in assay [4]; 48.2 in assay [5]; 0 in assay [6].
On to “Isoform 2 of Paraspeckle component 1 (from UniProt Q8R326 1-466)”, for which the total ion current (normalized to TIA1 = 1000) turned out to be 0 in assay [1]; 239 in assay [2]; 98.3 in assay [3]; 0 in assay [4]; 0 in assay [5]; 0 in assay [6].
For the substance “Isoform 2 of Phosphatidylinositol-binding clathrin assembly protein (from UniProt Q7M6Y3 2-597)”, the total ion current (normalized to TIA1 = 1000) is 0 in assay [1]; 0 in assay [2]; 20.1 in assay [3]; 0 in assay [4]; 0 in assay [5]; 31.4 in assay [6].
Consider “Isoform 2 of Plasminogen activator inhibitor 1 RNA-binding protein (from UniProt Q9CY58 1-392)”, for which the total ion current (normalized to TIA1 = 1000) in assay [1] was 0; in assay [2], 0; in assay [3] it was 136; in assay [4] it was 0; in assay [5] it was 0; in assay [6] it was 99.8.
Consider “Isoform 2 of Protein-L-isoaspartate(D-aspartate)-O-methyltransferase (from UniProt P23506 2-228)”, for which the total ion current (normalized to TIA1 = 1000) in assay [1] was 0; in assay [2], 0; in assay [3] it was 98.7; in assay [4], 0; in assay [5], 8.56; in assay [6] it was 91.6.
For “Isoform 2 of Sarcoplasmic/endoplasmic reticulum calcium ATPase 2 (from UniProt O55143 1-998)”, the total ion current (normalized to TIA1 = 1000) was determined as 0 in assay [1]; 0 in assay [2]; 36.6 in assay [3]; 0 in assay [4]; 0 in assay [5]; 21.5 in assay [6].
For the substance “Isoform 2 of Septin-4 (from UniProt P28661 1-459)”, the total ion current (normalized to TIA1 = 1000) was determined as 0 in assay [1]; 0 in assay [2]; 94.7 in assay [3]; 0 in assay [4]; 75.6 in assay [5]; 52.7 in assay [6].
As for “Isoform 2 of Sideroflexin-3 (from UniProt Q91V61 1-288)”, the total ion current (normalized to TIA1 = 1000) in assay [1] amounted to 0; in assay [2] it was 0; in assay [3] it was 46.1; in assay [4], 0; in assay [5] it was 0; in assay [6] it was 43.
Regarding “Isoform 2 of Sodium-driven chloride bicarbonate exchanger (from UniProt Q5DTL9 1-1088)”, the total ion current (normalized to TIA1 = 1000) worked out at 0 in assay [1]; 0 in assay [2]; 269 in assay [3]; 0 in assay [4]; 0 in assay [5]; 0 in assay [6].
As to “Isoform 4 of Phosphatase and actin regulator 1 (from UniProt Q2M3X8 1-649)”, the total ion current (normalized to TIA1 = 1000) came to 0 in assay [1]; 0 in assay [2]; 48.2 in assay [3]; 0 in assay [4]; 0 in assay [5]; 0 in assay [6].
With “Isoform A1-I of V-type proton ATPase 116 kDa subunit a isoform 1 (from UniProt Q9Z1G4 1-838)”, the total ion current (normalized to TIA1 = 1000) in assay [1] is 0; in assay [2], 0; in assay [3], 108; in assay [4], 0; in assay [5] it was 240; in assay [6], 13.
As for “Isoform A of Cytosolic acyl coenzyme A thioester hydrolase (from UniProt Q91V12 1-338)”, the total ion current (normalized to TIA1 = 1000) in assay [1] was 0; in assay [2], 0; in assay [3] it was 372; in assay [4], 0; in assay [5], 515; in assay [6] it was 190.
For “Isoform B of AP-2 complex subunit alpha-1 (from UniProt P17426 1-955)”, the total ion current (normalized to TIA1 = 1000) in assay [1] was 0; in assay [2], 0; in assay [3] it was 159; in assay [4] it was 0; in assay [5], 68.8; in assay [6], 248.
With “Isoform Beta-II of Protein kinase C beta type (from UniProt P68404 2-673)”, the total ion current (normalized to TIA1 = 1000) in assay [1] came out at 0; in assay [2], 0; in assay [3] it was 148; in assay [4] it was 0; in assay [5] it was 0; in assay [6], 13.
Take “Isoform Cytoplasmic of Fumarate hydratase, mitochondrial (from UniProt P97807 1-467)”: the total ion current (normalized to TIA1 = 1000) amounted to 0 in assay [1]; 0 in assay [2]; 57.7 in assay [3]; 0 in assay [4]; 0 in assay [5]; 49.2 in assay [6].
